Results taken from publication doi:10.1101/2021.07.20.452843 (bioRxiv, 2021).

Target: the molecule itself
Test: SEC

B1: His-PodJ(1-635) (domain or fragment, Caulobacter crescentus, UniProt Q9ZG88 1-635, looked up)
chain: MTAASPWSVKGIDPKAREVAKDLARRSGMTLGEWLNRMIIEGDGQTADPRLAGDDVPNRAYLEIVKDDAPPRIEIAEHPADEVGRVALALDRLTQRIEAAEGRNAAAITGIDHSVRDALTRLGASEREQIAVAARFEGAVDELKTEQARATERLRRIESEAAGPRSAEALRALEGALGKVAGHLYEGEARTREAIATLEAKLNQQSSGDPSALVEAVVARLGERLEAAETRTSDALRELGASFQALDQRLGAVETANPATGVQEGLDSLAATLTQKMEAARLEMAAKLRESADGRFDRMERKLGEMAAHVQAAEQRSAQAIERMGREIVGVADAFNRRVHAAESRNASAIEQVGGEVARIAASVEHKLNRADSVQAQALEKLGGEIARITEKLAERIGSAERRNALAIDDVGEQVARVTERLNQRHERSSQELVDRIRQSEERTLRMLEEAREKIDSRLSEAQRKLEAAPPSPPPAQAPAPVATAQRPVPPAASPFEDNYFSQAASFSTSEDEADAFDAPPAPARSFEVAEFPAAEPEEPAFAHDDYAIADGFEPESPRYEVEPEVSDFAPAEPSRPMSTRDIIEQARAAARAAAASEGKGGKAKSAKKEKASKASGSLFSGFGGFSTKKSKARL
- binding result: binds
